Assay results from US7537764.
Positions count from the first letter of the chain named. Read-outs that look alike come from different tables or passages of the source.

B1: CR4353 (antibody, V domains shown)
VH: QVQLVESGGGVVQPGRSLRLSCAASGFTFSNYAMHWVRQAPGKGLEWVAVISYDGGNKYYADSVKGRFTMSRDNSKNTLYLQMNSLRAEDTAVYYCARDFWSGYSMVDSYYYYMDVWGQGTTVTVSS
VL: ETTLTQSPGTLSLSPGERATLSCRASQSVSNTFLAWYQQKPGQAPRLLIYGASSRATGIPDRFSGSGSGTDFTLTISRLEPEDFAAYYCQQYGSSLTFGPGTKVDIKR
B2: CR4299 (antibody, V domains shown)
VH: QVQLVESGGGVVQPGRSLRLSCAASGFTFSGYAMHWVRQAPGKGLDWVAVISYDGSEKYSADSVKGRFTISRDNSKNTLYLQMNSLRAEDTAVYYCAKESGGPIWYKYYGVDVWGQGTTVTVSS
VL: SYVLTQPPSLSAAPRQRVTISCSGSSSNIGNYGVNWYQQLPGKAPKLLIYYDDLLPSGVSDRFSGSKSGTSASLAISGLQSEDEGDYYCAAWDDTLSAWVFGGGTKLTVLG
B3: SC04-374 (scFv)
scFv: QVTLKESGPTLVKPTQTLTLTCTFSGFSLSTSGVGVGWIRQPPGKALEWLAVIYWNDDKLYRPSLKSRLTITKDTSKNQVVLTMTKMDPVDTATYYCAHRHRYYDISGYYRLFSDAFDIWGQGTMVTVSSGTGGSGGTGSGTGGSTQSVVTQPPSVSGAPGQRVTISCTGSSSNIGAGYDVHWYQQLPGTAPKLLIYGNSNRPSGVPDRFSGSKSGTSASLAITGLQAEDEADYYCQSYDSSLSGSVFGGGTKLTVLG
B4: SC04-353 (scFv)
scFv: EVQLVQSGGGVVQPGRSLRLSCAASGFTFSNYAMHWVRQAPGKGLEWVAVISYDGGNKYYADSVKGRFTMSRDNSKNTLYLQMNSLRAEDTAVYYCARDFWSGYSMVDSYYYYMDVWGKGTTVTVSSGTGGSGGTGSGTGGSTETTLTQSPGTLSLSPGERATLSCRASQSVSNTFLAWYQQKPGQAPRLLIYGASSRATGIPDRFSGSGSGTDFTLTISRLEPEDFAAYYCQQYGSSLTFGPGTKVDIKR
B5: SC04-361 (scFv)
scFv: EVQLVQSGAEVKKPGESLKISCKASGFSFSTYWIGWVRQMPGKGLEWMGIIYPADSDTRYSPSFQGQVTISADKSISTAYLQWSSLKASDTAMYYCARLRGPYYDFWNGYRETHDAFNVWGQGTMVTVSSGTGGSGGTGSGTGGSTDVVMTQSPDSLAVSLGERATINCKSSQNILDNSDNKNFLAWYQQKPGQPPKLLIYWASARESGVPDRFSGSGSGTDFTLTISSLQAEDVALYYCQQYYNTPITFGQGTRLEIKR
B6: CR5074 (antibody, V domains shown)
VH: QVTLKESGPTLVKPTQTLTLTCTFSGFSLSTSGVGVGWIRQPPGKALEWLAVIYWNDDKLYRPSLKSRLTITKDTSKNQVVLTMTKMDPVDTATYYCAHRHRYYDISGYYRLFSDAFDIWGQGTMVTVSS
VL: QSVLTQPPSVSGAPGQRVTISCTGSSSNIGTGYDVHWYQQLPGTAPKLLIYADTNRPSGVPDRFSGSKSGTSASLAITGVQAEDEADYYCQSYDTSLTGWVFGGGTKVTVLG
B7: CR5088 (antibody, V domains shown)
VH: B6 VH
VL: QSVVTQPPSVSGAPGQRITISCTGSSSNIGAGYDVHWYQQLPGTAPKFLIYGNSNRPSGVPDRFSGSKSGTSASLAITGLQAEDEADYYCQSYDSSLSGWVFGGGTKLTVLG
B8: CR5080 (antibody, V domains shown)
VH: B6 VH
VL: B7 VL with V4L, I18V, F48L, V101A
B9: CR5085 (antibody, V domains shown)
VH: B6 VH
VL: B7 VL with I18V, F48L, A86T, S98N
B10: CR4289 (antibody, V domains shown)
VH: EVQLVQSGAEVKKPGESLRISCKGSGYSFTSNWITWVRQMPGKGLEWMGRIDPSDSYTNYSPSFQGHVTISADKSISTAYLQWSSLKASDTAMYYCARDVVGVGASDYYYYMDVWGQGTTVTVSS
VL: EIVLTQSPGTLSLSPGETATLSCRTSQSVSSSYLGWYQQKPGQAPRLLIYGASIRATGIPARFSGSGSGTEFTLTIDSLQSEDFAVYYCQQYNNWPPITFGQGTRLEIKR

Key:
[1] = biological target: West Nile virus strain USA99b (strain 385-99), whole virus (West Nile virus strain 385-99 (USA99b)); test: ELISA on irradiated WNV; IgG1 at 2.500 µg/ml
[2] = biological target: West Nile virus strain USA99b (strain 385-99), whole virus (West Nile virus strain 385-99 (USA99b)); test: ELISA on irradiated WNV; IgG1 at 1.250 µg/ml
[3] = biological target: West Nile virus strain USA99b (strain 385-99), whole virus (West Nile virus strain 385-99 (USA99b)); test: ELISA on irradiated WNV; IgG1 at 0.039 µg/ml
[4] = biological target: West Nile virus strain USA99b (strain 385-99), whole virus (West Nile virus strain 385-99 (USA99b)); test: ELISA on irradiated WNV; IgG1 at 0.310 µg/ml
[5] = biological target: West Nile virus strain USA99b (strain 385-99), whole virus (West Nile virus strain 385-99 (USA99b)); test: ELISA on irradiated WNV; IgG1 at 0.160 µg/ml
[6] = biological target: West Nile virus strain USA99b (strain 385-99), whole virus (West Nile virus strain 385-99 (USA99b)); test: ELISA on irradiated WNV; IgG1 at 0.630 µg/ml
[7] = biological target: West Nile virus strain USA99b (strain 385-99), whole virus (West Nile virus strain 385-99 (USA99b)); test: ELISA on irradiated WNV; IgG1 at 5.000 µg/ml
[8] = biological target: West Nile virus strain USA99b (strain 385-99), whole virus (West Nile virus strain 385-99 (USA99b)); test: ELISA on irradiated WNV; IgG1 at 0.078 µg/ml
[9] = biological target: West Nile virus strain USA99b (strain 385-99), whole virus (West Nile virus strain 385-99 (USA99b)); test: ELISA on irradiated WNV; IgG1 at 0.000 µg/ml (no antibody)
[10] = biological target: West Nile virus strain USA99b (strain 385-99), whole virus (West Nile virus strain 385-99 (USA99b)); test: ELISA on irradiated WNV; IgG1 at 10.000 µg/ml
[11] = biological target: West Nile virus strain USA99b (strain 385-99), whole virus (West Nile virus strain 385-99 (USA99b))
[12] = biological target: West Nile virus strain USA99b (strain 385-99), whole virus (West Nile virus strain 385-99 (USA99b)); test: cell-based or functional assay
[13] = biological target: West Nile virus strain USA99b (strain 385-99), whole virus (West Nile virus strain 385-99 (USA99b)); test: ELISA on irradiated WNV; IgG1 supernatant diluted 1:5
[14] = biological target: West Nile virus strain USA99b (strain 385-99), whole virus (West Nile virus strain 385-99 (USA99b)); test: ELISA on irradiated WNV; IgG1 supernatant diluted 1:25
[15] = biological target: West Nile virus strain USA99b (strain 385-99), whole virus (West Nile virus strain 385-99 (USA99b)); test: ELISA on irradiated WNV; IgG1 at 20.000 µg/ml
[16] = biological target: West Nile virus strain USA99b (strain 385-99), whole virus (West Nile virus strain 385-99 (USA99b)); test: ELISA on irradiated WNV; IgG1 supernatant diluted 1:125
[17] = biological target: West Nile virus strain USA99b (strain 385-99), whole virus (West Nile virus strain 385-99 (USA99b)); test: phage ELISA on coated whole inactivated WNV
[18] = biological target: West Nile virus strain USA99b (strain 385-99), whole virus (West Nile virus strain 385-99 (USA99b)); test: SPR as in Example 9, WNV captured via immobilized CR4283, average of duplicates

Row | Binder | OD 492 nm [1] | OD 492 nm [2] | OD 492 nm [3] | OD 492 nm [4] | OD 492 nm [5] | OD 492 nm [6] | OD 492 nm [7] | OD 492 nm [8] | OD 492 nm [9] | OD 492 nm [10] | OD 492 nm [17] | Kd [18] | also measured
1 | B1 | 1.43 OD | 1.42 OD | 0.595 OD | 1.17 OD | 1.07 OD | 1.33 OD | 1.55 OD | 0.734 OD | 0.003 OD | 1.57 OD |  |  | Kd [11]: 6.5 nM
2 | B2 | 1.03 OD | 0.977 OD | 0.227 OD | 0.756 OD | 0.61 OD | 0.891 OD | 1.07 OD | 0.446 OD | 0.003 OD | 1.12 OD |  |  | potency in the 66% neutralizing antibody titer assay [12]: 3 µg/mL; OD 492 nm [13]: 1.48 OD; OD 492 nm [14]: 1.34 OD; OD 492 nm [15]: 1.19 OD; OD 492 nm [16]: 0.929 OD
3 | B3 |  |  |  |  |  |  |  |  |  |  | 0.975 OD |  | 
4 | B4 |  |  |  |  |  |  |  |  |  |  | 1 OD |  | 
5 | B5 |  |  |  |  |  |  |  |  |  |  | 0.66 OD |  | 
6 | B6 |  |  |  |  |  |  |  |  |  |  |  | 3.9 nM | 
7 | B7 |  |  |  |  |  |  |  |  |  |  |  | 1.7 nM | 
8 | B8 |  |  |  |  |  |  |  |  |  |  |  | 2.7 nM | 
9 | B9 |  |  |  |  |  |  |  |  |  |  |  | 3.7 nM | 
10 | B10 | 0.492 OD | 0.415 OD | 0.147 OD | 0.313 OD | 0.25 OD | 0.351 OD | 0.586 OD | 0.209 OD | 0.003 OD | 0.752 OD |  |  | potency in the 66% neutralizing antibody titer assay [12]: 10.1 µg/mL
